Data: patent US20250215048A1 (MACFARLANE BURNET INSTITUTE FOR MEDICAL RESEARCH AND PUBLIC …, published 2025)

Legend:
[1] = target: Con1 HMW1 Δ123 (hepatitis C virus genotype 1b, strain Con1) (UniProt Q9WMX2); assay: direct ELISA on coated antigen; ratio of curve mid-points
[2] = target: S52 HMW1 Δ123 (hepatitis C virus genotype 3a, strain S52); assay: as above
[3] = target: H77c HMW1 Δ123 (hepatitis C virus genotype 1a, strain H77c) (UniProt P27958); assay: as above
[4] = target: T1, dimeric maltose binding protein (MBP)-CD81-LEL113-201 (UniProt P60033 113-201); assay: sandwich ELISA, MBP-CD81-LEL coated, anti-HIS detection
T1 construct: range 113-201; Coated on ELISA plates; The order of the parts follows the printed name, and no linker is stated; also called recombinant CD81
T1 sequence: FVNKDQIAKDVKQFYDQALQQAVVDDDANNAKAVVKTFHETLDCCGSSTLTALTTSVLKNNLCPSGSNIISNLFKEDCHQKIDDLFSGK

AR3B (antibody) gave a binding to HMW1 Δ123 relative to H77c HMW1 Δ123 [1] of less than 6.58 fold, a binding to HMW1 Δ123 relative to monomeric Δ123 of corresponding strain [1] of 0.17 fold and a binding to HMW1 Δ123 relative to H77c HMW1 Δ123 [2] of less than 1.68 fold. It also gave a binding to HMW1 Δ123 relative to monomeric Δ123 of corresponding strain [2] of less than 0.09 fold and a binding to HMW1 Δ123 relative to monomeric Δ123 of corresponding strain [3] of less than 0.37 fold.

For AR3C (antibody), the binding to HMW1 Δ123 relative to H77c HMW1 Δ123 [1] was 3.92 fold, the binding to HMW1 Δ123 relative to monomeric Δ123 of corresponding strain [1] was 0.13 fold and the binding to HMW1 Δ123 relative to H77c HMW1 Δ123 [2] was 6.17 fold. The binding to HMW1 Δ123 relative to monomeric Δ123 of corresponding strain [2] was 0.54 fold and the binding to HMW1 Δ123 relative to monomeric Δ123 of corresponding strain [3] was 0.18 fold.

AR3D (antibody) gave a binding to HMW1 Δ123 relative to H77c HMW1 Δ123 [1] of 4.73 fold, a binding to HMW1 Δ123 relative to monomeric Δ123 of corresponding strain [1] of 0.08 fold and a binding to HMW1 Δ123 relative to monomeric Δ123 of corresponding strain [3] of less than 0.17 fold.

Work on CBH-4B (antibody) yielded a binding to HMW1 Δ123 relative to H77c HMW1 Δ123 [1] of less than 1 fold, a binding to HMW1 Δ123 relative to monomeric Δ123 of corresponding strain [1] of less than 0.24 fold and a binding to HMW1 Δ123 relative to H77c HMW1 Δ123 [2] of less than 1 fold. The binding to HMW1 Δ123 relative to monomeric Δ123 of corresponding strain [2] was less than 0.62 fold and the binding to HMW1 Δ123 relative to monomeric Δ123 of corresponding strain [3] was less than 0.27 fold.

CBH-4D (antibody) was tested, and the binding to HMW1 Δ123 relative to H77c HMW1 Δ123 [1] was less than 1.23 fold, the binding to HMW1 Δ123 relative to monomeric Δ123 of corresponding strain [1] was less than 0.11 fold and the binding to HMW1 Δ123 relative to H77c HMW1 Δ123 [2] was less than 1.68 fold. It also gave a binding to HMW1 Δ123 relative to monomeric Δ123 of corresponding strain [2] of less than 0.07 fold and a binding to HMW1 Δ123 relative to monomeric Δ123 of corresponding strain [3] of less than 0.27 fold.

For HC-11 (antibody), the binding to HMW1 Δ123 relative to H77c HMW1 Δ123 [1] was 6.97 fold, the binding to HMW1 Δ123 relative to monomeric Δ123 of corresponding strain [1] was 0.28 fold and the binding to HMW1 Δ123 relative to H77c HMW1 Δ123 [2] was 1 fold. The binding to HMW1 Δ123 relative to monomeric Δ123 of corresponding strain [2] was less than 0.2 fold and the binding to HMW1 Δ123 relative to monomeric Δ123 of corresponding strain [3] was 0.21 fold.

HCV1 (antibody) showed a binding to HMW1 Δ123 relative to H77c HMW1 Δ123 [1] of 2.05 fold, a binding to HMW1 Δ123 relative to monomeric Δ123 of corresponding strain [1] of 1.46 fold and a binding to HMW1 Δ123 relative to H77c HMW1 Δ123 [2] of 2.08 fold. It also gave a binding to HMW1 Δ123 relative to monomeric Δ123 of corresponding strain [2] of 0.92 fold and a binding to HMW1 Δ123 relative to monomeric Δ123 of corresponding strain [3] of 1.21 fold.

B1: Con1 Δ123 glycoproteins, unfractionated (cell culture supernatant and TALON eluate) (other)
chain: GTYGSSGQLVNTNGSWHINRTALNCNDSLNTGFLAALFYVHKFNSSGCPERMASCGSSGCWHYAPRPCGIVPAAQVCGPVYCFTPSPVVVGTTDRFGVPTYSWGENETDVLLLNNTRPPQGNWFGCTWMNSTGFTKTCGGPPCGSSGCPTDCFRKHPEATYTKCGSGPWLTPRCLVHYPYRLWHYPCTVNFTIFKVRMYVGGVEHRLEAACNWTRGERCNLEDRDRSEHHHHHH
notes: Mixture of monomers, dimers and HMW forms as secreted by FS293F cells
B1: binds [4].

B2: S52 Δ123 glycoproteins, unfractionated (cell culture supernatant and TALON eluate) (other)
chain: ETHQKLQLVNTNGSWHINSTALNCNESINTGFIAGLFYYHKFNSTGCPQRLSSCGSSGCWHYAPRPCSVVPASSVCGPVYCFTPSPVVVGTTDIKGKPTYNWGENETDVFLLESLRPPSGRWFGCAWMNSTGFLKTCGAPPCGSSGCPTDCFRKHPEATYSRCGAGPWLTPRCMVDYPYRLWHYPCTVNFTLFKVRMFVGGFEHRFTAACNWTRGERCNIEDRDRSEHHHHHH
notes: as for B1
B2: binds [4].
